Here are results for five molecules from US6602992B1, “Mammalian prestin polynucleotides” (Northwestern University, priority 2000, dated 2003).

Test [1] addresses T1, prestin (Meriones unguiculatus, UniProt Q9JKQ2).
T1 sequence (Q9JKQ2 1-744): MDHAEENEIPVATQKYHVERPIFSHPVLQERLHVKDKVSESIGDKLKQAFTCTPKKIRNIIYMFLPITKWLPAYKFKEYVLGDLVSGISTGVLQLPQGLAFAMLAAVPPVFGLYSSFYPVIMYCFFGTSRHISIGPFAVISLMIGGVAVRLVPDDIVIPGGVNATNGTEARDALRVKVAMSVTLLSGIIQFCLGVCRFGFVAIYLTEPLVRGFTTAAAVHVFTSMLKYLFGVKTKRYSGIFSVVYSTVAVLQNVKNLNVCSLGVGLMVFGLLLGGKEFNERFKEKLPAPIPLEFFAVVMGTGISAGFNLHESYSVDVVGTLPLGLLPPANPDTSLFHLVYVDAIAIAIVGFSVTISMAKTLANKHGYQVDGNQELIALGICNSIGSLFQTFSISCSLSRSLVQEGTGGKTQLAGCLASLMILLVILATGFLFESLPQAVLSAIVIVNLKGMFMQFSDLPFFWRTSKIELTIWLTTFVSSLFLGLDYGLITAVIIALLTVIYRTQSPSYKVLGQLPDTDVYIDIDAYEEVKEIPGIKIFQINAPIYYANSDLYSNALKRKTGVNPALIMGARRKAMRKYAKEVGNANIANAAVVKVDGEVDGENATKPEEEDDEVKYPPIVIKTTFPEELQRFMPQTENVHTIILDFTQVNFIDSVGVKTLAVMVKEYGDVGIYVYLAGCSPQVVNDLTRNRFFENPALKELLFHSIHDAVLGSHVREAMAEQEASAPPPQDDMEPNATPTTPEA
The following applies: 10 millimolar in external bathing solution, FIG. 6C.
Method: (§1) TSA201 cells, clones of human embryonic kidney 293 cells that express the simian virus 40 (SV40) large T-antigen in a stable manner, were cultured in DMEM with 5% fetal calf serum, 100 units of penicillin per millilter, and 100 micrograms of streptomycin per milliliters. Cells were plated for 24 hours before calcium phosphate transfection. The transfection reaction mixture contained:
(§2) a) control plasmid, pcDNA3.1; b) 2 micrograms of Pres cDNA plasmid; c) 2 micrograms of Pres cDNA plasmid plus 0.2 micrograms of green fluorescent protein (GFP) plasmid as transfection marker; or d) 2 micrograms of pendrin cDNA plasmid plus 0.2 micrograms GFP plasmid.
(§3) After 24 hours the transfected cells were used for electrophysiological and physical measurements.
TSA201 cells were drawn into a microchamber with gentle suction (FIG. 6A). The microchamber was mounted on a three-dimensional micromanipulator attached to the stage of a Zeiss inverted microscope. […] The command voltage, delivered between the electrolyte solutions (L15, Gibco BRL) surrounding and filling the microchamber, produces different voltage drops on the included and excluded cell membrane segments, determined by the electrical voltage-divider effect of these membranes. During motility measurements, the location of the cell within the slit was monitored via a video camera placed behind the slit. […]

For test [2], the target named is T1, prestin.
Method: as §1, §2, §3
Whole-cell voltage-clamp recordings were made with an Axopatch™ 200B amplifier (Axon Instruments, Foster City, Calif.) Recording pipettes had open tip resistances of 2-3 megaohms and were filled with internal solution containing 140 millimolar CsCl, 2 millimolar MgCl2, 10 millimolar EGTA, and 10 millimolar HEPES at pH 7.2. The external solution contained: 120 millimolar NaCl, 20 millimolar TEA-Cl, 2 millimolar CoCl2, 2 millimolar MgCl2, 10 millimolar HEPES, and 5 millimolar glucose at pH 7.2. Osmolarity was adjusted to 300 milliosmolar per liter with glucose. Capacitive currents were filtered at 5 kilohertz and digitized at 50 kilohertz using pClamp 7.0 software (Axon Instruments).
Voltage-dependent capacitance was measured using two methods. First, a standard P/4 linear subtraction procedure was employed to detect the presence of nonlinear charge movement. After nonlinear transient current was detected, a stair-step voltage protocol was used to obtain the parameters of charge movement. For each voltage step, the measured membrane capacitance (Cm) was plotted as a function of membfane voltage (Vm) and fitted with the derivative of a Boltzmann function: [formula] […]
Test [3] relates to TSA201 cells. In words: Nonlinear capacitance / charge movement conveyed to transiently transfected TSA201 cells. Format: cell-based, human. More on the design: average charge density: unit not given here. To be noted: for nonlinear capacitance: co-transfected with GFP. Here is the method: The transfection reaction mixture contained:
Voltage-dependent capacitance was measured using two methods.
To test the sensor-motor function of prestin, voltage-dependent charge movement was measured in TSA201 cells after transient transfection of unmodified, native Pres cDNA. A second plasmid (pEGFP-N2) containing GFP cDNA was used as an independent marker for successful transfection of the cells. Transfection efficiency was 30-40% as judged from the fluorescence of GFP in transfected cells. […] In experiments conducted on cells co-transfected with prestin and GFP cDNA, transient capacitive currents were obtained from 91.8% of the GFP positive cells. […] The capacitive currents were directed towards the outside as the membrane potential was depolarized and toward the inside as it was hyperpolarized. Charges transferred at command onset and offset were approximately equal. The decay of transient currents was rapid (100-200 microseconds) and could be well-fitted with a single exponential. The voltage protocol used to estimate membrane capacitance and charge transfer across the membrane was an ascending stair-step voltage waveform (FIG. 5B). The membrane capacitance was fitted to the derivative of a first-order Boltzmann equation (FIG. 5C). In a group of seven cells, these curve-fits yielded values of Qmax=1.76±0.20 pC, V1/2=−57.30 ±2.98 mV, 1/a˜=kT/ze=28.00±2.13 mV, and Clin=20.50±2.65 pF, respectively (mean±SEM). The valence can be calculated from a, z=0.91. The average charge density, a possible measure of transiently transfected motor protein density in TSA201 cells, was […]. The numerical values that characterize the charge movement (V1/2, z) are quite similar to those obtained for OHCs. The maximum charge and charge density are less in the transfected cells, even though the linear capacitance is about the same as that of an average OHC. […]

Test [4] has as its system TSA201 cells. Description: Electromotility conveyed to transfected TSA201 cells (microchamber). Format: cell-based, human. To be noted: cells drawn into microchamber, 200 Hertz sinusoid. From the text: A change of photocurrent signified cell extension or contraction.
Setting [5] is: Boltzmann fit, seven cells, mean±SEM.

Regarding `O=C([O-])c1ccccc1O.[Na+]` [Sodium salicylate, sodium salicylate], the “effect on electromotile response” value on prestin [1] was “reversible decrease in the electromotile response”. Besides, the “effect on charge movement” value at prestin [2] was “reversibly blocks charge movement”. The “transient currents after recovery, % of control” value on prestin [2] (3 cells, after 2-5 minutes of washing in normal extracellular solution without sodium salicylate) is on record as 88.4±8.8 % of control. For the same molecule, at prestin [2] (10 millimolar sodium salicylate applied locally, mean±SEM), the “transient currents, % of control” value is 15.5±2.9 % of control.

B1: human pendrin: chloride-iodide transport protein homologous to prestin, expressed from cDNA as specificity control (protein, UniProt O43511 1-780, looked up)
Pendrin: MAAPGGRSEPPQLPEYSCSYMVSRPVYSELAFQQQHERRLQERKTLRESLAKCCSCSRKRAFGVLKTLVPILEWLPKYRVKEWLLSDVISGVSTGLVATLQGMAYALLAAVPVGYGLYSAFFPILTYFIFGTSRHISVGPFPVVSLMVGSVVLSMAPDEHFLVSSSNGTVLNTTMIDTAARDTARVLIASALTLLVGIIQLIFGGLQIGFIVRYLADPLVGGFTTAAAFQVLVSQLKIVLNVSTKNYNGVLSIIYTLVEIFQNIGDTNLADFTAGLLTIVVCMAVKELNDRFRHKIPVPIPIEVIVTIIATAISYGANLEKNYNAGIVKSIPRGFLPPELPPVSLFSEMLAASFSIAVVAYAIAVSVGKVYATKYDYTIDGNQEFIAFGISNIFSGFFSCFVATTALSRTAVQESTGGKTQVAGIISAAIVMIAILALGKLLEPLQKSVLAAVVIANLKGMFMQLCDIPRLWRQNKIDAVIWVFTCIVSIILGLDLGLLAGLIFGLLTVVLRVQFPSWNGLGSIPSTDIYKSTKNYKNIEEPQGVKILRFSSPIFYGNVDGFKKCIKSTVGFDAIRVYNKRLKALRKIQKLIKSGQLRATKNGIISDAVSTNNAFEPDEDIEDLEELDIPTKEIEIQVDWNSELPVKVNVPKVPIHSLVLDCGAISFLDVVGVRSLRVIVKEFQRIDVNVYFASLQDYVIEKLEQCGFFDDNIRKDTFFLTVHDAILYLQNQVKSQEGQGSILETITLIQDCKDTLELIETELTEEELDVQDEAMRTLAS
Turning to B1, the “nonlinear capacitance” value with TSA201 cells [3] is “None of the GFP-positive cells demonstrated nonlinear capacitance”.

B2: prestin: gerbil outer hair cell motor protein, 744 amino acids, 81.4 kiloDaltons, SEQ ID NO:1, expressed from Pres cDNA (protein, listed as Meriones unguiculatus)
chain: T1 sequence (Q9JKQ2 1-744)
As for B2, in the test with TSA201 cells [3] (setting [5]), the “1/a = kT/ze, slope factor” value was found to be 28.00±2.13 mV; the “Qmax, maximum charge transfer” value is listed as 1.76±0.20 pC; the “V1/2, voltage at which the maximum charge is equally distributed” value is reported as −57.30 ±2.98 mV. In the test on TSA201 cells [3] (calculated from a), the valence z is given as 0.91. Besides, the “cells displaying transient capacitive currents” value with TSA201 cells [3] (cells transfected with Pres alone) is reported as 36.8%. The “GFP positive cells displaying transient capacitive currents” value in the test with TSA201 cells [3] (co-transfected with prestin and GFP cDNA) was 91.8%. Further, in the test with TSA201 cells [3] (single exponential), the “decay of transient currents” value was 100-200 microseconds. The molecule also showed an average charge density in the test with TSA201 cells [3] (transiently transfected TSA201 cells) of 5360. In the test on TSA201 cells [4], the “cells tested showing electromotility” value was “about 22%”.

B3: N-tagged prestin: full-length prestin with an Xpress epitope located upstream and in-frame (protein, UniProt P58743 1-744, looked up)
chain: MDHAEENEILAATQRYYVERPIFSHPVLQERLHTKDKVPDSIADKLKQAFTCTPKKIRNIIYMFLPITKWLPAYKFKEYVLGDLVSGISTGVLQLPQGLAFAMLAAVPPIFGLYSSFYPVIMYCFLGTSRHISIGPFAVISLMIGGVAVRLVPDDIVIPGGVNATNGTEARDALRVKVAMSVTLLSGIIQFCLGVCRFGFVAIYLTEPLVRGFTTAAAVHVFTSMLKYLFGVKTKRYSGIFSVVYSTVAVLQNVKNLNVCSLGVGLMVFGLLLGGKEFNERFKEKLPAPIPLEFFAVVMGTGISAGFNLKESYNVDVVGTLPLGLLPPANPDTSLFHLVYVDAIAIAIVGFSVTISMAKTLANKHGYQVDGNQELIALGLCNSIGSLFQTFSISCSLSRSLVQEGTGGKTQLAGCLASLMILLVILATGFLFESLPQAVLSAIVIVNLKGMFMQFSDLPFFWRTSKIELTIWLTTFVSSLFLGLDYGLITAVIIALLTVIYRTQSPSYKVLGKLPETDVYIDIDAYEEVKEIPGIKIFQINAPIYYANSDLYSNALKRKTGVNPAVIMGARRKAMRKYAKEVGNANMANATVVKADAEVDGEDATKPEEEDGEVKYPPIVIKSTFPEEMQRFMPPGDNVHTVILDFTQVNFIDSVGVKTLAGIVKEYGDVGIYVYLAGCSAQVVNDLTRNRFFENPALWELLFHSIHDAVLGSQLREALAEQEASAPPSQEDLEPNATPATPEA
modifications: full-length N-terminal Xpress tag
Turning to B3, in the test with TSA201 cells [3], the “nonlinear capacitance” value is given as “typical nonlinear capacitance curve is observed”.

B4: C-tagged prestin: full-length prestin tagged at the C-terminus with a V5 epitope (protein, UniProt P58743 1-744, looked up)
chain: B3 chain
modifications: full-length C-terminal V5 tag
With B4, the “nonlinear capacitance” value in the test on TSA201 cells [3] is listed as “typical nonlinear capacitance curve is observed”.
